Assay results from the RNAGym collection of RNA variant scans (doi:10.1093/molbev/msab373).

B1: Azoarcus group I ribozyme (parent)
chain: GUGCCUUGCGCCGGGAAACCACGCAAGGGAUGGUGUCAAAUUCGGCGAAACCUAAGCGCCCGCCCGGGCGUAUGGCAACGCCGAGCCAAGCUUCGGCGCCUGCGCCGAUGAAGGUGUAGAGACUAGACGGCACCCACCUAAGGCAAACGCUAUGGUGAAGGCAUAGUCCAGGGAGUGGCGAAAGUCACACAAACCGG

Variants of: B1
Experiment: reverse-splicing fitness (ratio to wild type); higher = more active; in vitro selection; Mg2+ level not given
Outline: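 An in vitro group I ribozyme library with randomized positions was T7-transcribed and gel-purified. In triplicate, 10 pmol RNA in EPPS pH 7.5 was reacted with 50 pmoles of a 30-nt RNA substrate for 1 h at 37 °C across several added MgCl2 levels (1–48 mM), then stopped with EDTA. Products were reverse transcribed from a substrate-complementary primer, PCR-amplified and sequenced (HiSeq 4000). Fitness is a variant's read proportion after selection over that before, normalised to wild type.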

Compared with GUGCCUUGCGCCGGGAAACCACGCAAGGGAUGGUGUCAAAUUCGGCGAAACCUAAGCGCCCGCCCGGGCGUAUGGCAACGCGGAGCCAAGCUUCGGCGCCUGCGCCGAUGAAGGUGUAGAGACUAGACGGCACCCACCUAAGGCUAACGCUAUGGUGAAGGCAUAGUCCAGGGAGUGGCGAAAGUCACACAAACCGG [C82G A145U], GUGCCUUGCGCCGGGAAACCACGCAAGGGAUGGUGUCAAAUUCGGCGAAACCUAAGCGCCCGCCCGGGCGUAUGGCAACGCGGAGCCAAGCUUCGGCGCCUGCGCCGAUGAAGGUGUAGAGACUAGACGGCACCCACCUAAGGCGAACGCUAUGGUGAAGGCAUAGUCGAGGGAGCGGCGAAAGUCACACAAACCGG [C82G A145G C169G U176C] is lower in reverse-splicing fitness: 0.509 for the first, 0.0279 for the second.

Compared with GUGCCUUGCGCCGGGAAACCACGCAAGGGAUGGUGUCAAAUUCGGCGAAACCUAAGCGCCCGCCCGGGCGUAUGGCAACGCGGAGCCAAGCUUCGGCGCCUGCGCCGAUGAAGGUGUAGAGACUAGACGGCACCCACCUAAGGCGAACGCUAUGGUGAAGGCAUAGUCGAGGGAGGGGCGAAAGUCACACAAACCGG [C82G A145G C169G U176G], GUGCCUUGCGCCGGGAAACCACGCAAGGGAUGGUGUCAAAUUCGGCGAAACCUAAGCGCCCGCCCGGGCGUAUGGCAACGCGGAGCCAAGCUUCGGCGCCUGCGCCGAUGAAGGUGUAGAGACUAGACGGCACCCACCUAAGGCGAACGCUAUGGUGAAGGCAUAGUCGAGGGAGAGGCGAAAGUCACACAAACCGG [C82G A145G C169G U176A] is higher in reverse-splicing fitness: 0.00454 for the first, 0.0176 for the second.

Compared with GUGCCUUGCGCCGGGAAACCACGCAAGGGAUGGUGUCAAAUUCGGCGAAACCUAAGCGCCCGCCCGGGCGUAUGGCAACGCGGAGCCAAGCUUCGGCGCCUGCGCCGAUGAAGGUGUAGAGACUAGACGGCACCCACCUAAGGCGAACGCUAUGGUGAAGGCAUAGUCUAGGGAGCGGCGAAAGUCACACAAACCGG [C82G A145G C169U U176C], GUGCCUUGCGCCGGGAAACCACGCAAGGGAUGGUGUCAAAUUCGGCGAAACCUAAGCGCCCGCCCGGGCGUAUGGCAACGCGGAGCCAAGCUUCGGCGCCUGCGCCGAUGAAGGUGUAGAGACUAGACGGCACCCACCUAAGGCGAACGCUAUGGUGAAGGCAUAGUCUAGGGAGAGGCGAAAGUCACACAAACCGG [C82G A145G C169U U176A] is lower in reverse-splicing fitness: 0.0155 for the first, 0.0138 for the second.

Going from GUGCCUUGCGCCGGGAAACCACGCAAGGGAUGGUGUCAAAUUCGGCGAAACCUAAGCGCCCGCCCGGGCGUAUGGCAACGCGGAGCCAAGCUUCGGCGCCUGCGCCGAUGAAGGUGUAGAGACUAGACGGCACCCACCUAAGGCGAACGCUAUGGUGAAGGCAUAGUCUAGGGAGGGGCGAAAGUCACACAAACCGG [C82G A145G C169U U176G] to GUGCCUUGCGCCGGGAAACCACGCAAGGGAUGGUGUCAAAUUCGGCGAAACCUAAGCGCCCGCCCGGGCGUAUGGCAACGCGGAGCCAAGCUUCGGCGCCUGCGCCGAUGAAGGUGUAGAGACUAGACGGCACCCACCUAAGGCUAACGAUAUGGUGAAGGCAUAGUCGAGGGAGAGGCGAAAGUCACACAAACCGG [C82G A145U C150A C169G U176A], the reverse-splicing fitness rises from 0.00412 to 0.0109.

First: GUGCCUUGCGCCGGGAAACCACGCAAGGGAUGGUGUCAAAUUCGGCGAAACCUAAGCGCCCGCCCGGGCGUAUGGCAACGCGGAGCCAAGCUUCGGCGCCUGCGCCGAUGAAGGUGUAGAGACUAGACGGCACCCACCUAAGGCUAACGAUAUGGUGAAGGCAUAGUCGAGGGAGCGGCGAAAGUCACACAAACCGG [C82G A145U C150A C169G U176C]
Second: GUGCCUUGCGCCGGGAAACCACGCAAGGGAUGGUGUCAAAUUCGGCGAAACCUAAGCGCCCGCCCGGGCGUAUGGCAACGCGGAGCCAAGCUUCGGCGCCUGCGCCGAUGAAGGUGUAGAGACUAGACGGCACCCACCUAAGGCUAACGAUAUGGUGAAGGCAUAGUCGAGGGAGGGGCGAAAGUCACACAAACCGG [C82G A145U C150A C169G U176G]
The reverse-splicing fitness of the first is higher: 0.0129 for the first, 0.00436 for the second.

First: GUGCCUUGCGCCGGGAAACCACGCAAGGGAUGGUGUCAAAUUCGGCGAAACCUAAGCGCCCGCCCGGGCGUAUGGCAACGCGGAGCCAAGCUUCGGCGCCUGCGCCGAUGAAGGUGUAGAGACUAGACGGCACCCACCUAAGGCUAACGAUAUGGUGAAGGCAUAGUCGAGGGAGUGGCGAAAGUCACACAAACCGG [C82G A145U C150A C169G]
Second: GUGCCUUGCGCCGGGAAACCACGCAAGGGAUGGUGUCAAAUUCGGCGAAACCUAAGCGCCCGCCCGGGCGUAUGGCAACGCGGAGCCAAGCUUCGGCGCCUGCGCCGAUGAAGGUGUAGAGACUAGACGGCACCCACCUAAGGCUAACGAUAUGGUGAAGGCAUAGUCAAGGGAGUGGCGAAAGUCACACAAACCGG [C82G A145U C150A C169A]
The reverse-splicing fitness of the first is lower: 0.00669 for the first, 0.00972 for the second.

First: GUGCCUUGCGCCGGGAAACCACGCAAGGGAUGGUGUCAAAUUCGGCGAAACCUAAGCGCCCGCCCGGGCGUAUGGCAACGCGGAGCCAAGCUUCGGCGCCUGCGCCGAUGAAGGUGUAGAGACUAGACGGCACCCACCUAAGGCUAACGAUAUGGUGAAGGCAUAGUCUAGGGAGUGGCGAAAGUCACACAAACCGG [C82G A145U C150A C169U]
Second: GUGCCUUGCGCCGGGAAACCACGCAAGGGAUGGUGUCAAAUUCGGCGAAACCUAAGCGCCCGCCCGGGCGUAUGGCAACGCGGAGCCAAGCUUCGGCGCCUGCGCCGAUGAAGGUGUAGAGACUAGACGGCACCCACCUAAGGCUAACGAUAUGGUGAAGGCAUAGUCCAGGGAGCGGCGAAAGUCACACAAACCGG [C82G A145U C150A U176C]
The reverse-splicing fitness of the first is lower: 0.00756 for the first, 0.0384 for the second.

For GUGCCUUGCGCCGGGAAACCACGCAAGGGAUGGUGUCAAAUUCGGCGAAACCUAAGCGCCCGCCCGGGCGUAUGGCAACGCGGAGCCAAGCUUCGGCGCCUGCGCCGAUGAAGGUGUAGAGACUAGACGGCACCCACCUAAGGCUAACGAUAUGGUGAAGGCAUAGUCCAGGGAGGGGCGAAAGUCACACAAACCGG [C82G A145U C150A U176G], the reverse-splicing fitness was 0.0186.
